Data reported in article PMC8532503 (Science (New York, N.Y.), 2021).

Target: Full-length ectodomain of human LRP1 (LRP1-ECD) (human, UniProt Q07954-1 20-4414)
Assay: SEC

Full-length ectodomain of human LRP1 (LRP1-ECD), sequence (Q07954 20-4414): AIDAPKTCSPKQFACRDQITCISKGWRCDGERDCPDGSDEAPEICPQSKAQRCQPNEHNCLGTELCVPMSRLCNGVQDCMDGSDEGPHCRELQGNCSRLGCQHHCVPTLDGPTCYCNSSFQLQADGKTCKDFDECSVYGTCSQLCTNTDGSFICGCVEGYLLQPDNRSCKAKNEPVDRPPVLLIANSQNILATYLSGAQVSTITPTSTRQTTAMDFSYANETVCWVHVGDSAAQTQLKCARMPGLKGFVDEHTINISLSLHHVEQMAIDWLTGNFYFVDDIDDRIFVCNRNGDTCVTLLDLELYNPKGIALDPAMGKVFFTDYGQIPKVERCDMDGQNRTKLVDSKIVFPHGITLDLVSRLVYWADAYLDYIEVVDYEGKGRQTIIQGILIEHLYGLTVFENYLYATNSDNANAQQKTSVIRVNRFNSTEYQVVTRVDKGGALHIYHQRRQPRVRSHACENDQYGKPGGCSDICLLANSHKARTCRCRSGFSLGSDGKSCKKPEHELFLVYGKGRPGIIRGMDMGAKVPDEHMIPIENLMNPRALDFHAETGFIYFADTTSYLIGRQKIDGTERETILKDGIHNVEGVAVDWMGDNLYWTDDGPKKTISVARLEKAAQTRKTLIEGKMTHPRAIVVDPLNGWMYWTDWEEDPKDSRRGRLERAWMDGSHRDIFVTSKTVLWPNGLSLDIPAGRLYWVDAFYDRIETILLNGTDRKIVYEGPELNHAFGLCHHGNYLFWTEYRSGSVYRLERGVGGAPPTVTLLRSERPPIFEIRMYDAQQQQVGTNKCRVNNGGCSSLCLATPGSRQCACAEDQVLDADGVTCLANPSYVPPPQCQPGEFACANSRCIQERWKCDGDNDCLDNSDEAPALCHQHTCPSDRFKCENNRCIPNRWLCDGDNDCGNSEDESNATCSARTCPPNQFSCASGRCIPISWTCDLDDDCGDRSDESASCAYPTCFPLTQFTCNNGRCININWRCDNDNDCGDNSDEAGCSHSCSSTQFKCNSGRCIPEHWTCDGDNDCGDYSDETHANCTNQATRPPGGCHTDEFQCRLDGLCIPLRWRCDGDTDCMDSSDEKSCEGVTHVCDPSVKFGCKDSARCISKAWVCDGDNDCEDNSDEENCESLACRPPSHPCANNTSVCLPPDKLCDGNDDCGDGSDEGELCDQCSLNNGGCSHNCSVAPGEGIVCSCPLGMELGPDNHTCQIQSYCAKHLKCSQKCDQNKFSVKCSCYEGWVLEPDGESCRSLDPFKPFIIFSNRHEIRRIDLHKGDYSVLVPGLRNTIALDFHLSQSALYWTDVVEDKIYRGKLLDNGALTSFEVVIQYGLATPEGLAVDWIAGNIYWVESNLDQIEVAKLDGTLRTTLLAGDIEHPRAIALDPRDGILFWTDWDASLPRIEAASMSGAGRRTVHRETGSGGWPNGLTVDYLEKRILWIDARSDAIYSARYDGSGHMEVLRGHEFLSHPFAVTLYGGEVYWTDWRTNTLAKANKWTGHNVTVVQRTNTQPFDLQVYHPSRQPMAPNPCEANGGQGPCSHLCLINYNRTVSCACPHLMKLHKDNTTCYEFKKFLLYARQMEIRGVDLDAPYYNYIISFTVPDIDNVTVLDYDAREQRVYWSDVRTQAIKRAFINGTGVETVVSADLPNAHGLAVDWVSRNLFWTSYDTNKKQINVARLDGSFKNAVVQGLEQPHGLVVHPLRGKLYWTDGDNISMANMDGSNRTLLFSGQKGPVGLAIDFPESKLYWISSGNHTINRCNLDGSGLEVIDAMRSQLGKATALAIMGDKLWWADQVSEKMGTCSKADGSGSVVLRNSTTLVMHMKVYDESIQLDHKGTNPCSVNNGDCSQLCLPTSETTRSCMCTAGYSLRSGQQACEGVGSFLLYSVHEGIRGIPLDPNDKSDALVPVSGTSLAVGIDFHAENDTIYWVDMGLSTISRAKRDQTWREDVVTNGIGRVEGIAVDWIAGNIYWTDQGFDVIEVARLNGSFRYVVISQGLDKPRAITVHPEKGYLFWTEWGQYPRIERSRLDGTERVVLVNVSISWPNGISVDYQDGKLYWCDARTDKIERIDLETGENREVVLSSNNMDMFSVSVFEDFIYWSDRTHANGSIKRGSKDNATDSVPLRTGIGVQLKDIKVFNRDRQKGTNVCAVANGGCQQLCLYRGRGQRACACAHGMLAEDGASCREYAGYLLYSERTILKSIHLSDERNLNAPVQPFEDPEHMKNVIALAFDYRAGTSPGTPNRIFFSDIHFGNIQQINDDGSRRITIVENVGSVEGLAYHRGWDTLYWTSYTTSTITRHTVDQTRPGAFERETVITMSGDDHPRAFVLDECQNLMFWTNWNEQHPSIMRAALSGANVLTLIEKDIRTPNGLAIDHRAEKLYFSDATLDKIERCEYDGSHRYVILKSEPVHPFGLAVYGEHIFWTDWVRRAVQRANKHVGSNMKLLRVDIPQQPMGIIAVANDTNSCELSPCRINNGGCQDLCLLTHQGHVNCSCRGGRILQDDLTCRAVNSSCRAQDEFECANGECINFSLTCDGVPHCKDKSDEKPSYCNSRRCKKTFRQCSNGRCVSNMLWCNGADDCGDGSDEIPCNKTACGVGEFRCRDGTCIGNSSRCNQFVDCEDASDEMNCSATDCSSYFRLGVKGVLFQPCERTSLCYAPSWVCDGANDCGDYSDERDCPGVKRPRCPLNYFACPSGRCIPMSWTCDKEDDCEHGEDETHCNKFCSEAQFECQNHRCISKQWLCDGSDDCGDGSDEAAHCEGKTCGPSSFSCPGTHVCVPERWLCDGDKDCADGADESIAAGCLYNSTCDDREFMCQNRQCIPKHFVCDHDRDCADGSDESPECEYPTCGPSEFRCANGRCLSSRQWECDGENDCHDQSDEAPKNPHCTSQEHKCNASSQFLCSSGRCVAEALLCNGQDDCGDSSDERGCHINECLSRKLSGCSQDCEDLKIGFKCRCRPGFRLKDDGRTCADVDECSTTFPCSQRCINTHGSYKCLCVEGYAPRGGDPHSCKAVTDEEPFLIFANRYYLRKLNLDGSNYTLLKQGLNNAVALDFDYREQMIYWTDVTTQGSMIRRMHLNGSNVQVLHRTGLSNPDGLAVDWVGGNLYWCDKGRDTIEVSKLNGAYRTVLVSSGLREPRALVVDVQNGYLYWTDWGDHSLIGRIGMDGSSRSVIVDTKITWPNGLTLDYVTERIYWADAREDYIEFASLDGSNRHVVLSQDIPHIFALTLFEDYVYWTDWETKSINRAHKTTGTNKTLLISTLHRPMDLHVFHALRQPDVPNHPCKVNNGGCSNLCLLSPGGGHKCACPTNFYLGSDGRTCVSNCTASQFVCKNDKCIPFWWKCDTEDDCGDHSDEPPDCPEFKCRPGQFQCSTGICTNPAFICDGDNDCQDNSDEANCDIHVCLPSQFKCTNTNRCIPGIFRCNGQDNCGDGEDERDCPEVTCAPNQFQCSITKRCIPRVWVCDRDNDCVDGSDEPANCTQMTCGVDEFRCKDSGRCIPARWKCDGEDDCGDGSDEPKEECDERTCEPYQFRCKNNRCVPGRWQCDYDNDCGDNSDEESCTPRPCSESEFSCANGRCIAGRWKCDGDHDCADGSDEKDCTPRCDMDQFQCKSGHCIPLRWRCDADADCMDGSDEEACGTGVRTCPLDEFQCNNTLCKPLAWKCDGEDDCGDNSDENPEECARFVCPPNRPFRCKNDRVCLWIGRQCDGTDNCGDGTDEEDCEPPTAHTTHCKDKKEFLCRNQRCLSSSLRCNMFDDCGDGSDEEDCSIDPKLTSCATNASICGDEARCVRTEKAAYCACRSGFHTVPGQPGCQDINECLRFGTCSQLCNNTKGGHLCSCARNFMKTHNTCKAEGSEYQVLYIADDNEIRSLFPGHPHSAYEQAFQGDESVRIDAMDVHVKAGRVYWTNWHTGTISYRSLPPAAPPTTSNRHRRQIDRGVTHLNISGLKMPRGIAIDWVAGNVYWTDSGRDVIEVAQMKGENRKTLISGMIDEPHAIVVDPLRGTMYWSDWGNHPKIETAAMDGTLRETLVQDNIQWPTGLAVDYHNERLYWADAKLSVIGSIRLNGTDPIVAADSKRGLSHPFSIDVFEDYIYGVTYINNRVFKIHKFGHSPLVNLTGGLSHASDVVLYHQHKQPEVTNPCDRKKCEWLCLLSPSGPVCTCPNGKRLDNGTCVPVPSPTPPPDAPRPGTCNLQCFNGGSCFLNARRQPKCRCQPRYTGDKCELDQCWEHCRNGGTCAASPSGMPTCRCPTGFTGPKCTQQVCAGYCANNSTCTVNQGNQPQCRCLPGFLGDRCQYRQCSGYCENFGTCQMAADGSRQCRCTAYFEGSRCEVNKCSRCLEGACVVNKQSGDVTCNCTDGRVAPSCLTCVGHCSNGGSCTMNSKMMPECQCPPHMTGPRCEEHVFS

B1: Recombinant mouse SAA1 (purified SAA1, tag state not stated) (natural protein, UniProt P05366 20-122, looked up)
chain: GFFSFVHEAFQGAGDMWRAYTDMKEANWKNSDKYFHARGNYDAAQRGPGGVWAAEKISDGREAFQEFFGRGHEDTIADQEANRHGRSGKDPNYYRPPGLPDKY
  binding result: binds
